# Biological target: T1, BnWRKY15 (Brassica napus, UniProt A0A291B474 1-319)
# Test: EMSA; Beyotime EMSA binding buffer (composition, pH not stated), 40 nM Cy5 DNA probe, room temperature; 6% native PAGE in ice water bath
# Details: protein: recombinant; tags: 6xHis (pET-32a fusion); label: Cy5
# T1 sequence (A0A291B474 entry or part of it): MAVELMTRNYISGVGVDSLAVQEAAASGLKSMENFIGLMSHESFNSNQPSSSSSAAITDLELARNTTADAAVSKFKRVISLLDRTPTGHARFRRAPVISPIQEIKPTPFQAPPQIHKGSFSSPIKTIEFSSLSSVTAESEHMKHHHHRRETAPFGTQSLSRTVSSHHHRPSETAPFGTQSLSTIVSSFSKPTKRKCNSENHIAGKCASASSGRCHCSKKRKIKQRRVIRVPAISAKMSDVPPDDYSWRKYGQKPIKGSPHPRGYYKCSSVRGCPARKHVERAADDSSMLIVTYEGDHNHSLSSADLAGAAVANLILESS
row,Binder,binding result
1,W1m5 probe (dsDNA) DNA 1: TCAACCCGGGGGACACATGGTCTGACCATCTCCTCTCCTCCTCTTCTTCTCCATCTTCTAATTTTTTCAACGGTCAAACTT DNA 2: AAGTTTGACCGTTGAAAAAATTAGAAGATGGAGAAGAAGAGGAGGAGAGGAGATGGTCAGACCATGTGTCCCCCGGGTTGA,binds
2,3x first W-box (W1) (dsDNA) DNA 1: TCAAAGTCAAGGACTCAAAGTCAAGGACTCAAAGTCAAGGAC DNA 2: GTCCTTGACTTTGAGTCCTTGACTTTGAGTCCTTGACTTTGA,binds
3,3x second W-box (W2) (dsDNA) DNA 1: TGGTCTGACCATCTTGGTCTGACCATCTTGGTCTGACCATCT DNA 2: AGATGGTCAGACCAAGATGGTCAGACCAAGATGGTCAGACCA,binds
4,3x third W-box (W3) (dsDNA) DNA 1: CAACGGTCAAACTTCAACGGTCAAACTTCAACGGTCAAACTT DNA 2: AAGTTTGACCGTTGAAGTTTGACCGTTGAAGTTTGACCGTTG,binds
5,Mt probe (three W-boxes mutated) (dsDNA) DNA 1: TCAACCCGGGGGACACATGGTCCCGGGATCTCCTCTCCTCCTCTTCTTCTCCATCTTCTAATTTTTTCAACCCCGGGACTT DNA 2: AAGTCCCGGGGTTGAAAAAATTAGAAGATGGAGAAGAAGAGGAGGAGAGGAGATCCCGGGACCATGTGTCCCCCGGGTTGA,no binding
6,W1m1 probe (dsDNA) DNA 1: TCAAAGTCTAGGACACATGGTCTGACCATCTCCTCTCCTCCTCTTCTTCTCCATCTTCTAATTTTTTCAACGGTCAAACTT DNA 2: AAGTTTGACCGTTGAAAAAATTAGAAGATGGAGAAGAAGAGGAGGAGAGGAGATGGTCAGACCATGTGTCCTAGACTTTGA,binds
7,W1m2 probe (dsDNA) DNA 1: TCAAAGTGAAGGACACATGGTCTGACCATCTCCTCTCCTCCTCTTCTTCTCCATCTTCTAATTTTTTCAACGGTCAAACTT DNA 2: AAGTTTGACCGTTGAAAAAATTAGAAGATGGAGAAGAAGAGGAGGAGAGGAGATGGTCAGACCATGTGTCCTTCACTTTGA,binds
8,W1m3 probe (dsDNA) DNA 1: TCAAAGGCAAGGACACATGGTCTGACCATCTCCTCTCCTCCTCTTCTTCTCCATCTTCTAATTTTTTCAACGGTCAAACTT DNA 2: AAGTTTGACCGTTGAAAAAATTAGAAGATGGAGAAGAAGAGGAGGAGAGGAGATGGTCAGACCATGTGTCCTTGCCTTTGA,binds
9,W1m4 probe (dsDNA) DNA 1: TCAAAATCAAGGACACATGGTCTGACCATCTCCTCTCCTCCTCTTCTTCTCCATCTTCTAATTTTTTCAACGGTCAAACTT DNA 2: AAGTTTGACCGTTGAAAAAATTAGAAGATGGAGAAGAAGAGGAGGAGAGGAGATGGTCAGACCATGTGTCCTTGATTTTGA,binds

# Biological target: T1, BnWRKY15
# Test: EMSA; alone; also outcompetes equal BnWRKY33; Beyotime EMSA binding buffer (composition, pH not stated), 40 nM Cy5 DNA probe, room temperature; 6% native PAGE in ice water bath
# Details: protein: recombinant; tags: 6xHis (pET-32a fusion); label: Cy5
row,Binder,binding result
1,W-box probe (Fig 12b) (dsDNA) DNA 1: TCAAAGTCAAGGACACATGGTCTGACCATCTCCTCTCCTCCTCTTCTTCTCCATCTTCTAATTTTTTCAACGGTCAAACTT DNA 2: AAGTTTGACCGTTGAAAAAATTAGAAGATGGAGAAGAAGAGGAGGAGAGGAGATGGTCAGACCATGTGTCCTTGACTTTGA,binds

# Biological target: T1, BnWRKY15
# Test: competition; unlabelled competitor against Cy5-33probe; Beyotime EMSA binding buffer (composition, pH not stated), 40 nM Cy5 DNA probe, room temperature; 6% native PAGE in ice water bath
# Details: protein: recombinant; tags: 6xHis (pET-32a fusion); label: unlabelled
row,Binder,binding result
1,GCC-box (dsDNA) DNA 1: CATAAGAGCCGCCACT DNA 2: AGTGGCGGCTCTTATG,no binding

# Biological target: T1, BnWRKY15
# Test: EMSA; competed by unlabelled 33probe (12.5x, 25x); Beyotime EMSA binding buffer (composition, pH not stated), 40 nM Cy5 DNA probe, room temperature; 6% native PAGE in ice water bath
# Details: protein: recombinant; tags: 6xHis (pET-32a fusion); label: Cy5
row,Binder,binding result
1,33probe (WT) (dsDNA) DNA 1: TCAAAGTCAAGGACACATGGTCTGACCATCTCCTCTCCTCCTCTTCTTCTCCATCTTCTAATTTTTTCAACGGTCAAACTT DNA 2: AAGTTTGACCGTTGAAAAAATTAGAAGATGGAGAAGAAGAGGAGGAGAGGAGATGGTCAGACCATGTGTCCTTGACTTTGA,binds
